Drawing on patent US20240018502A1, this text covers EC50 of hC3 cleavage for 20 molecules.

B1: MTSP-1 Q38H/I41A/D60bY/F60eT/ins97aE/F97T/T98G/F99L/C122S/Q175L/Q192D (enzyme)
chain: VVGGTDADEGEWPWQVSLHALGHGHACGASLISPNWLVSAAHCYIDYRGTRYSDPTQWTAFLGLHDQSQRSAPGVQERRLKRIISHPFFNDTEGLDYDIALLELEKPAEYSSMVRPISLPDASHVFPAGKAIWVTGWGHTQYGGTGALILQKGEIRVINQTTCENLLPQLITPRMMCVGFLSGGVDSCDGDSGGPLSSVEADGRIFQAGVVSWGDGCAQRNKPGVYTRLPLFRDWIKENTGV
B2: MTSP-1 Q38H/I41S/D60bT/F60eS/Y60gW/ins97aV/F97D/T98P/F99L/C122S/G151N/Q175A/Q192D (enzyme)
chain: VVGGTDADEGEWPWQVSLHALGHGHSCGASLISPNWLVSAAHCYIDTRGSRWSDPTQWTAFLGLHDQSQRSAPGVQERRLKRIISHPFFNDDVPLDYDIALLELEKPAEYSSMVRPISLPDASHVFPAGKAIWVTGWGHTQYGGTNALILQKGEIRVINQTTCENLLPQAITPRMMCVGFLSGGVDSCDGDSGGPLSSVEADGRIFQAGVVSWGDGCAQRNKPGVYTRLPLFRDWIKENTGV
B3: MTSP-1 Q38H/I41S/D60bT/F60eS/Y60gW/ins97aV/F97D/T98P/F99L/C122S/G151N/Q175L/Q192E (enzyme)
chain: VVGGTDADEGEWPWQVSLHALGHGHSCGASLISPNWLVSAAHCYIDTRGSRWSDPTQWTAFLGLHDQSQRSAPGVQERRLKRIISHPFFNDDVPLDYDIALLELEKPAEYSSMVRPISLPDASHVFPAGKAIWVTGWGHTQYGGTNALILQKGEIRVINQTTCENLLPQLITPRMMCVGFLSGGVDSCEGDSGGPLSSVEADGRIFQAGVVSWGDGCAQRNKPGVYTRLPLFRDWIKENTGV
B4: MTSP-1 Q38H/I41A/D60bT/F60eK/Y60gW/ins97aE/F97T/T98G/F99L/C122S/G151H/Q175L/Q192D (enzyme)
chain: VVGGTDADEGEWPWQVSLHALGHGHACGASLISPNWLVSAAHCYIDTRGKRWSDPTQWTAFLGLHDQSQRSAPGVQERRLKRIISHPFFNDTEGLDYDIALLELEKPAEYSSMVRPISLPDASHVFPAGKAIWVTGWGHTQYGGTHALILQKGEIRVINQTTCENLLPQLITPRMMCVGFLSGGVDSCDGDSGGPLSSVEADGRIFQAGVVSWGDGCAQRNKPGVYTRLPLFRDWIKENTGV
B5: MTSP-1 Q38Y/I41S/D60bR/F60eE/Y60gF/ins97aE/F97T/T98G/F99L/C122S/Q175L/Q192V (enzyme)
chain: VVGGTDADEGEWPWQVSLHALGYGHSCGASLISPNWLVSAAHCYIDRRGERFSDPTQWTAFLGLHDQSQRSAPGVQERRLKRIISHPFFNDTEGLDYDIALLELEKPAEYSSMVRPISLPDASHVFPAGKAIWVTGWGHTQYGGTGALILQKGEIRVINQTTCENLLPQLITPRMMCVGFLSGGVDSCVGDSGGPLSSVEADGRIFQAGVVSWGDGCAQRNKPGVYTRLPLFRDWIKENTGV
B6: MTSP-1 Q38H/I41A/D60bV/F60eI/Y60gW/ins97aE/F97T/T98G/F99L/C122S/G151H/Q175L/Q192D (enzyme)
chain: VVGGTDADEGEWPWQVSLHALGHGHACGASLISPNWLVSAAHCYIDVRGIRWSDPTQWTAFLGLHDQSQRSAPGVQERRLKRIISHPFFNDTEGLDYDIALLELEKPAEYSSMVRPISLPDASHVFPAGKAIWVTGWGHTQYGGTHALILQKGEIRVINQTTCENLLPQLITPRMMCVGFLSGGVDSCDGDSGGPLSSVEADGRIFQAGVVSWGDGCAQRNKPGVYTRLPLFRDWIKENTGV
B7: MTSP-1 Q38E/I41S/D60bV/F60eK/Y60gW/ins97aE/F97T/T98G/F99L/C122S/G151H/Q175L/Q192D (enzyme)
chain: VVGGTDADEGEWPWQVSLHALGEGHSCGASLISPNWLVSAAHCYIDVRGKRWSDPTQWTAFLGLHDQSQRSAPGVQERRLKRIISHPFFNDTEGLDYDIALLELEKPAEYSSMVRPISLPDASHVFPAGKAIWVTGWGHTQYGGTHALILQKGEIRVINQTTCENLLPQLITPRMMCVGFLSGGVDSCDGDSGGPLSSVEADGRIFQAGVVSWGDGCAQRNKPGVYTRLPLFRDWIKENTGV
B8: MTSP-1 Q38H/I41S/D60bT/F60eS/ins97aV/F97D/T98P/F99L/C122S/G151H/Q175L/Q192V (enzyme)
chain: VVGGTDADEGEWPWQVSLHALGHGHSCGASLISPNWLVSAAHCYIDTRGSRYSDPTQWTAFLGLHDQSQRSAPGVQERRLKRIISHPFFNDDVPLDYDIALLELEKPAEYSSMVRPISLPDASHVFPAGKAIWVTGWGHTQYGGTHALILQKGEIRVINQTTCENLLPQLITPRMMCVGFLSGGVDSCVGDSGGPLSSVEADGRIFQAGVVSWGDGCAQRNKPGVYTRLPLFRDWIKENTGV
B9: MTSP-1 Q38E/I41A/D60bH/ins97aV/F97D/T98P/F99L/C122S/Q192G/Q209L/D217H (enzyme)
chain: VVGGTDADEGEWPWQVSLHALGEGHACGASLISPNWLVSAAHCYIDHRGFRYSDPTQWTAFLGLHDQSQRSAPGVQERRLKRIISHPFFNDDVPLDYDIALLELEKPAEYSSMVRPISLPDASHVFPAGKAIWVTGWGHTQYGGTGALILQKGEIRVINQTTCENLLPQQITPRMMCVGFLSGGVDSCGGDSGGPLSSVEADGRIFLAGVVSWGHGCAQRNKPGVYTRLPLFRDWIKENTGV
B10: MTSP-1 Q38H/I41A/D60bE/F60eH/Y60gW/ins97aE/F97T/T98G/F99L/C122S/G151H/Q175L/Q192D (enzyme)
chain: VVGGTDADEGEWPWQVSLHALGHGHACGASLISPNWLVSAAHCYIDERGHRWSDPTQWTAFLGLHDQSQRSAPGVQERRLKRIISHPFFNDTEGLDYDIALLELEKPAEYSSMVRPISLPDASHVFPAGKAIWVTGWGHTQYGGTHALILQKGEIRVINQTTCENLLPQLITPRMMCVGFLSGGVDSCDGDSGGPLSSVEADGRIFQAGVVSWGDGCAQRNKPGVYTRLPLFRDWIKENTGV
B11: MTSP-1 Q38H/I41S/D60bT/F60eS/Y60gW/ins97aV/F97D/T98P/F99L/C122S/G151H/Q175L/Q192V (enzyme)
chain: VVGGTDADEGEWPWQVSLHALGHGHSCGASLISPNWLVSAAHCYIDTRGSRWSDPTQWTAFLGLHDQSQRSAPGVQERRLKRIISHPFFNDDVPLDYDIALLELEKPAEYSSMVRPISLPDASHVFPAGKAIWVTGWGHTQYGGTHALILQKGEIRVINQTTCENLLPQLITPRMMCVGFLSGGVDSCVGDSGGPLSSVEADGRIFQAGVVSWGDGCAQRNKPGVYTRLPLFRDWIKENTGV
B12: MTSP-1 Q38H/I41S/L52M/D60bG/ins97aV/F97D/T98P/F99L/M117K/C122S/I136L/Q192G/D217A (enzyme)
chain: VVGGTDADEGEWPWQVSLHALGHGHSCGASLISPNWMVSAAHCYIDGRGFRYSDPTQWTAFLGLHDQSQRSAPGVQERRLKRIISHPFFNDDVPLDYDIALLELEKPAEYSSKVRPISLPDASHVFPAGKALWVTGWGHTQYGGTGALILQKGEIRVINQTTCENLLPQQITPRMMCVGFLSGGVDSCGGDSGGPLSSVEADGRIFQAGVVSWGAGCAQRNKPGVYTRLPLFRDWIKENTGV
B13: MTSP-1 Q38R/I41T/D60bT/ins97aV/F97D/T98P/F99L/C122S/I136V/Q192G/D217N/L233Q (enzyme)
chain: VVGGTDADEGEWPWQVSLHALGRGHTCGASLISPNWLVSAAHCYIDTRGFRYSDPTQWTAFLGLHDQSQRSAPGVQERRLKRIISHPFFNDDVPLDYDIALLELEKPAEYSSMVRPISLPDASHVFPAGKAVWVTGWGHTQYGGTGALILQKGEIRVINQTTCENLLPQQITPRMMCVGFLSGGVDSCGGDSGGPLSSVEADGRIFQAGVVSWGNGCAQRNKPGVYTRLPQFRDWIKENTGV
B14: MTSP-1 Q38H/I41S/D60bS/ins97aV/F97D/T98P/F99L/M117L/C122S/I136T/Q192G/D217I (enzyme)
chain: VVGGTDADEGEWPWQVSLHALGHGHSCGASLISPNWLVSAAHCYIDSRGFRYSDPTQWTAFLGLHDQSQRSAPGVQERRLKRIISHPFFNDDVPLDYDIALLELEKPAEYSSLVRPISLPDASHVFPAGKATWVTGWGHTQYGGTGALILQKGEIRVINQTTCENLLPQQITPRMMCVGFLSGGVDSCGGDSGGPLSSVEADGRIFQAGVVSWGIGCAQRNKPGVYTRLPLFRDWIKENTGV
B15: MTSP-1 I41S/D60bT/F93L/ins97aV/F97D/T98P/F99L/C122S/Q192G/D217H (enzyme)
chain: VVGGTDADEGEWPWQVSLHALGQGHSCGASLISPNWLVSAAHCYIDTRGFRYSDPTQWTAFLGLHDQSQRSAPGVQERRLKRIISHPLFNDDVPLDYDIALLELEKPAEYSSMVRPISLPDASHVFPAGKAIWVTGWGHTQYGGTGALILQKGEIRVINQTTCENLLPQQITPRMMCVGFLSGGVDSCGGDSGGPLSSVEADGRIFQAGVVSWGHGCAQRNKPGVYTRLPLFRDWIKENTGV
B16: MTSP-1 ins97aA/F97G/T98L/C122S/Q175M/Q192A/D217I/K224R (enzyme)
chain: VVGGTDADEGEWPWQVSLHALGQGHICGASLISPNWLVSAAHCYIDDRGFRYSDPTQWTAFLGLHDQSQRSAPGVQERRLKRIISHPFFNDGALFDYDIALLELEKPAEYSSMVRPISLPDASHVFPAGKAIWVTGWGHTQYGGTGALILQKGEIRVINQTTCENLLPQMITPRMMCVGFLSGGVDSCAGDSGGPLSSVEADGRIFQAGVVSWGIGCAQRNRPGVYTRLPLFRDWIKENTGV
B17: MTSP-1 I41T/D60bH/ins97aV/F97D/T98P/F99L/C122S/Q192G/D217I (enzyme)
chain: VVGGTDADEGEWPWQVSLHALGQGHTCGASLISPNWLVSAAHCYIDHRGFRYSDPTQWTAFLGLHDQSQRSAPGVQERRLKRIISHPFFNDDVPLDYDIALLELEKPAEYSSMVRPISLPDASHVFPAGKAIWVTGWGHTQYGGTGALILQKGEIRVINQTTCENLLPQQITPRMMCVGFLSGGVDSCGGDSGGPLSSVEADGRIFQAGVVSWGIGCAQRNKPGVYTRLPLFRDWIKENTGV
B18: MTSP-1 ins97aY/F97H/F99L/C122S/Q175M/Q192A/D217V (enzyme)
chain: VVGGTDADEGEWPWQVSLHALGQGHICGASLISPNWLVSAAHCYIDDRGFRYSDPTQWTAFLGLHDQSQRSAPGVQERRLKRIISHPFFNDHYTLDYDIALLELEKPAEYSSMVRPISLPDASHVFPAGKAIWVTGWGHTQYGGTGALILQKGEIRVINQTTCENLLPQMITPRMMCVGFLSGGVDSCAGDSGGPLSSVEADGRIFQAGVVSWGVGCAQRNKPGVYTRLPLFRDWIKENTGV
B19: MTSP-1 ins97aL/F97Q/T98G/F99L/C122S/Q175M/Q192S/D217I (enzyme)
chain: VVGGTDADEGEWPWQVSLHALGQGHICGASLISPNWLVSAAHCYIDDRGFRYSDPTQWTAFLGLHDQSQRSAPGVQERRLKRIISHPFFNDQLGLDYDIALLELEKPAEYSSMVRPISLPDASHVFPAGKAIWVTGWGHTQYGGTGALILQKGEIRVINQTTCENLLPQMITPRMMCVGFLSGGVDSCSGDSGGPLSSVEADGRIFQAGVVSWGIGCAQRNKPGVYTRLPLFRDWIKENTGV
B20: MTSP-1 ins97aY/F97G/T98V/C122S/Q175M/Q192S/D217V (enzyme)
chain: VVGGTDADEGEWPWQVSLHALGQGHICGASLISPNWLVSAAHCYIDDRGFRYSDPTQWTAFLGLHDQSQRSAPGVQERRLKRIISHPFFNDGYVFDYDIALLELEKPAEYSSMVRPISLPDASHVFPAGKAIWVTGWGHTQYGGTGALILQKGEIRVINQTTCENLLPQMITPRMMCVGFLSGGVDSCSGDSGGPLSSVEADGRIFQAGVVSWGVGCAQRNKPGVYTRLPLFRDWIKENTGV

plasma purified human complement protein C3 (human), sequence (P01024 23-667, chain 1 of 2): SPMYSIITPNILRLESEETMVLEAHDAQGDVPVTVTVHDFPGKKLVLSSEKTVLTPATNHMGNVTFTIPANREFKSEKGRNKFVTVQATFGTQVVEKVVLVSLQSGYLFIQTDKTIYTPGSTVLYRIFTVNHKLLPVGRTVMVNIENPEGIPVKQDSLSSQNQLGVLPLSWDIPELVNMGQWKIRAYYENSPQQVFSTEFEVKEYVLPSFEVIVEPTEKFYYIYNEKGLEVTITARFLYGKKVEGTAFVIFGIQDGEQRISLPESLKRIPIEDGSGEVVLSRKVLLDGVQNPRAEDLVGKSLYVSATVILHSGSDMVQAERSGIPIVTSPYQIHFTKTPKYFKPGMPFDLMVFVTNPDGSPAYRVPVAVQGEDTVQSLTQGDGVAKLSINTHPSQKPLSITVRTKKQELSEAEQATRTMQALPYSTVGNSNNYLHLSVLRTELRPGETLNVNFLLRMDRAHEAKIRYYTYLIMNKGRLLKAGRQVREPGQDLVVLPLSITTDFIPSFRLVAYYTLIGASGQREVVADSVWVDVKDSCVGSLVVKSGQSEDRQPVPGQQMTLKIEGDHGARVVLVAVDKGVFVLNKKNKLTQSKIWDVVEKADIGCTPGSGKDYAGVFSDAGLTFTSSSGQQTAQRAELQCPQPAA
plasma purified human complement protein C3 (human), sequence (P01024 672-1663, chain 2 of 2): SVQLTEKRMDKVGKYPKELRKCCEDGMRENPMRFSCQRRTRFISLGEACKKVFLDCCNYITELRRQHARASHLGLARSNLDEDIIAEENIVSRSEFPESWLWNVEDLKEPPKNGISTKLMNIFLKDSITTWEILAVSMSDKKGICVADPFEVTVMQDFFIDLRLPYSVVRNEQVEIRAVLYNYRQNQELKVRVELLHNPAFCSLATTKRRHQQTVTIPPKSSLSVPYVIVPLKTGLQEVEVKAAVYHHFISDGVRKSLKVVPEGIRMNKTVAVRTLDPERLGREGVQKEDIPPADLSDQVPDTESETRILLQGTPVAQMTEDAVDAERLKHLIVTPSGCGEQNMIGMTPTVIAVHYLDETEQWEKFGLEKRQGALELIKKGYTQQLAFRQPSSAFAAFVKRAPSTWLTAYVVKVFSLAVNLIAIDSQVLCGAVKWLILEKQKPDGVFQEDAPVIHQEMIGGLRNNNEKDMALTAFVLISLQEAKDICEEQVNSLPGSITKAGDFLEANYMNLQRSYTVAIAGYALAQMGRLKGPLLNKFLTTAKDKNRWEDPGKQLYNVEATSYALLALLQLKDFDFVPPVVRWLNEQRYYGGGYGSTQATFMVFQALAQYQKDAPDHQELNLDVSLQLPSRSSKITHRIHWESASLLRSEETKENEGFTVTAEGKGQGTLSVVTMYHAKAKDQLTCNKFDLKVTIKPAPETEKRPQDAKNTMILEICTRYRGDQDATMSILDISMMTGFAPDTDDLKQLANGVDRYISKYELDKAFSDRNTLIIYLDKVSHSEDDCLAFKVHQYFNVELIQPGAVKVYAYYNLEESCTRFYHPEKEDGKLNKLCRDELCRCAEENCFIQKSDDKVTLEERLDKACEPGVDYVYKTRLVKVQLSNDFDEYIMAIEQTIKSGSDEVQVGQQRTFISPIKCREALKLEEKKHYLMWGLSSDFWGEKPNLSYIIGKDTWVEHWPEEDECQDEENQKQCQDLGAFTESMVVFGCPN

The assay concerns the target plasma purified human complement protein C3 (human) (UniProt P01024). As to the kind of experiment: cell-based or functional assay.
The molecule B1 gave an EC50 of hC3 cleavage of 4.77 nM.
To B2 belongs 22.5 nM; to B3, 6.78 nM; to B4, 10.6 nM.
The figure for B5 is 25 nM; for B6 it is 6.42 nM; for B7 it is 22.9 nM.
Molecule B8 came in with an EC50 of hC3 cleavage of 20.2 nM.
The molecule B9 came in with an EC50 of hC3 cleavage of 10.2 nM.
Molecule B10 registered an EC50 of hC3 cleavage of 13.8 nM.
The figure for B11 is 7.43 nM; for B12 it is 22 nM; for B13 it is 39.8 nM.
To B14 belongs 2.43 nM; to B15, 27.7 nM.
As to B16, the EC50 of hC3 cleavage worked out at 0.866 nM.
In turn, B17 returned an EC50 of hC3 cleavage of 4.52 nM.
The figure for B18 is 5.72 nM; for B19 it is 6.67 nM; for B20 it is 2.42 nM.
